Like-named read-outs stand apart in the source and are kept apart here.
T1: FtsZ (purified, C. crescentus) (Caulobacter crescentus, UniProt B8H080 1-508)
T1 sequence (looked up): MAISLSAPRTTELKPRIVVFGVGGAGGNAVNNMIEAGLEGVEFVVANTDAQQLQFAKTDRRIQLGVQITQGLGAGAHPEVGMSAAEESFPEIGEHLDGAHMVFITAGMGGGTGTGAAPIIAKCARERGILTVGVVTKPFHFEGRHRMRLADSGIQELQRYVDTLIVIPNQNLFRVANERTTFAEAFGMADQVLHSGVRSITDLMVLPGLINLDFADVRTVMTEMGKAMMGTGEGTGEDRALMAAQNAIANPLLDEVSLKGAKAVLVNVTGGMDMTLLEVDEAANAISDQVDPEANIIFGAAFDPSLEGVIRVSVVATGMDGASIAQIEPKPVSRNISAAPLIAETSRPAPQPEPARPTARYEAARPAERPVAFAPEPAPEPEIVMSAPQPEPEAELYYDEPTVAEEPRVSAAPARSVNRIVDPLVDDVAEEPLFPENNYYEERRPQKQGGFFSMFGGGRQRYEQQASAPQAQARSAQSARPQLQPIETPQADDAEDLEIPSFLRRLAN


Tests used:
[1] = biological target: T1, FtsZ (purified, C. crescentus)
[2] = biological target: T1, FtsZ (purified, C. crescentus); experiment: co-sedimentation; low speed co-pelleting (higher order structures): 4 µM FzlA variant ± 2 µM FtsZ, 50 mM MES pH 6.5, 50 mM KCl, 2.5 mM MgCl2, 2 mM GTP, 16 000 x g 15 min room temperature; settings: both partners purified
[3] = biological target: T1, FtsZ (purified, C. crescentus); experiment: co-sedimentation; high speed co-pelleting: 4 µM FzlA variant ± 2 µM FtsZ, 50 mM MES pH 6.5, 50 mM KCl, 10 mM MgCl2, 2 mM GTP, 0.05% Triton X-100, 15 min room temperature, 280 000 x g 15 min 25°C; Coomassie gel quantified; settings: both partners purified
[4] = biological target: T1, FtsZ (purified, C. crescentus); experiment: cell-based or functional assay

| Molecule | % of FtsZ GTPase rate [1] [%] | fold change of FzlA in pellet (with FtsZ vs. alone), low speed [2] [fold] | fold change of FzlA in pellet (with FtsZ vs. alone), high speed [3] [fold] | % of FtsZ GTPase rate [4] [%] |
| --- | --- | --- | --- | --- |
| FzlA^WB1 (D109R E122K) (from UniProt A0A0H3CDY2 1-228) (natural protein) | 85.5 | – | – | – |
| untagged WT FzlA (natural protein, Caulobacter crescentus, FzlA, Caulobacter crescentus; source: E. coli Rosetta (DE3) pLysS, purified (HisTrap, His6-SUMO cleaved with His6-ULP, second HisTrap flow through)) MSVERTLHHFPLDPASRQVRLALGEKRLPFVEMQVRYWEMPPEFTSLNPSGMPPVLVETKHQRNLVICETRAILEHIEETETEPPLLGRDPAERAEARRLLQWFDRKFDNEVNGFLLHEKMEKRLLRMGAPDLAALRQGREALRMHLGYIESLLQTRDWLAGRRMSLADFAAAAHLSVIDYFGDVPWKDFQAAKTWYMKLKSRPCFRPILADRWPGLAPAAHYDDLDF | – | 11.1 | 20.4 | – |
| FzlA^NB1 (W38A R124D) (natural protein, Caulobacter crescentus, FzlA, Caulobacter crescentus, with W38A R124D; Self-aggregates under the standard conditions (pH 6.5, 2:1 FzlA:FtsZ); source: E. coli Rosetta (DE3) pLysS, purified (HisTrap, His6-SUMO cleaved)) MSVERTLHHFPLDPASRQVRLALGEKRLPFVEMQVRYAEMPPEFTSLNPSGMPPVLVETKHQRNLVICETRAILEHIEETETEPPLLGRDPAERAEARRLLQWFDRKFDNEVNGFLLHEKMEKDLLRMGAPDLAALRQGREALRMHLGYIESLLQTRDWLAGRRMSLADFAAAAHLSVIDYFGDVPWKDFQAAKTWYMKLKSRPCFRPILADRWPGLAPAAHYDDLDF | – | 1.25 | 0.91 | 96.3 |
| FzlA^NH3 (R144D) (natural protein, Caulobacter crescentus, FzlA, Caulobacter crescentus, with R144D; also called no helices; source: E. coli Rosetta (DE3) pLysS, purified (HisTrap, His6-SUMO cleaved)) MSVERTLHHFPLDPASRQVRLALGEKRLPFVEMQVRYWEMPPEFTSLNPSGMPPVLVETKHQRNLVICETRAILEHIEETETEPPLLGRDPAERAEARRLLQWFDRKFDNEVNGFLLHEKMEKRLLRMGAPDLAALRQGREALDMHLGYIESLLQTRDWLAGRRMSLADFAAAAHLSVIDYFGDVPWKDFQAAKTWYMKLKSRPCFRPILADRWPGLAPAAHYDDLDF | – | – | 3.51 | 89 |
| FzlA^UN1 (P131A) (natural protein, Caulobacter crescentus, FzlA, Caulobacter crescentus, with P131A; also called unknown nonessential activity; source: E. coli Rosetta (DE3) pLysS, purified (HisTrap, His6-SUMO cleaved)) MSVERTLHHFPLDPASRQVRLALGEKRLPFVEMQVRYWEMPPEFTSLNPSGMPPVLVETKHQRNLVICETRAILEHIEETETEPPLLGRDPAERAEARRLLQWFDRKFDNEVNGFLLHEKMEKRLLRMGAADLAALRQGREALRMHLGYIESLLQTRDWLAGRRMSLADFAAAAHLSVIDYFGDVPWKDFQAAKTWYMKLKSRPCFRPILADRWPGLAPAAHYDDLDF | – | 9.86 | 9.85 | 55.7 |
| FzlA^UE2 (D227K) (natural protein, Caulobacter crescentus, FzlA, Caulobacter crescentus, with D227K; also called unknown essential activity; source: E. coli Rosetta (DE3) pLysS, purified (HisTrap, His6-SUMO cleaved)) MSVERTLHHFPLDPASRQVRLALGEKRLPFVEMQVRYWEMPPEFTSLNPSGMPPVLVETKHQRNLVICETRAILEHIEETETEPPLLGRDPAERAEARRLLQWFDRKFDNEVNGFLLHEKMEKRLLRMGAPDLAALRQGREALRMHLGYIESLLQTRDWLAGRRMSLADFAAAAHLSVIDYFGDVPWKDFQAAKTWYMKLKSRPCFRPILADRWPGLAPAAHYDDLKF | – | 12.3 | 59 | 42.6 |
| FzlA^UE1 (Y223A D227K F228A) (natural protein, Caulobacter crescentus, FzlA, Caulobacter crescentus, with Y223A D227K F228A; also called unknown essential activity; source: E. coli Rosetta (DE3) pLysS, purified (HisTrap, His6-SUMO cleaved)) MSVERTLHHFPLDPASRQVRLALGEKRLPFVEMQVRYWEMPPEFTSLNPSGMPPVLVETKHQRNLVICETRAILEHIEETETEPPLLGRDPAERAEARRLLQWFDRKFDNEVNGFLLHEKMEKRLLRMGAPDLAALRQGREALRMHLGYIESLLQTRDWLAGRRMSLADFAAAAHLSVIDYFGDVPWKDFQAAKTWYMKLKSRPCFRPILADRWPGLAPAAHADDLKA | – | 6.1 | 5.85 | 77.3 |
| FzlA^NH1 (P131A L136A R137E) (natural protein, Caulobacter crescentus, FzlA, Caulobacter crescentus, with P131A L136A R137E; also called no helices; source: E. coli Rosetta (DE3) pLysS, purified (HisTrap, His6-SUMO cleaved)) MSVERTLHHFPLDPASRQVRLALGEKRLPFVEMQVRYWEMPPEFTSLNPSGMPPVLVETKHQRNLVICETRAILEHIEETETEPPLLGRDPAERAEARRLLQWFDRKFDNEVNGFLLHEKMEKRLLRMGAADLAAAEQGREALRMHLGYIESLLQTRDWLAGRRMSLADFAAAAHLSVIDYFGDVPWKDFQAAKTWYMKLKSRPCFRPILADRWPGLAPAAHYDDLDF | – | – | 2.34 | 86.2 |
| FzlA^NH2 (R140D E141K) (natural protein, Caulobacter crescentus, FzlA, Caulobacter crescentus, with R140D E141K; also called no helices; source: E. coli Rosetta (DE3) pLysS, purified (HisTrap, His6-SUMO cleaved)) MSVERTLHHFPLDPASRQVRLALGEKRLPFVEMQVRYWEMPPEFTSLNPSGMPPVLVETKHQRNLVICETRAILEHIEETETEPPLLGRDPAERAEARRLLQWFDRKFDNEVNGFLLHEKMEKRLLRMGAPDLAALRQGDKALRMHLGYIESLLQTRDWLAGRRMSLADFAAAAHLSVIDYFGDVPWKDFQAAKTWYMKLKSRPCFRPILADRWPGLAPAAHYDDLDF | – | – | 7.21 | 85 |
| FzlA^NB2 (E119K) (natural protein, Caulobacter crescentus, FzlA, Caulobacter crescentus, with E119K; source: E. coli Rosetta (DE3) pLysS, purified (HisTrap, His6-SUMO cleaved)) MSVERTLHHFPLDPASRQVRLALGEKRLPFVEMQVRYWEMPPEFTSLNPSGMPPVLVETKHQRNLVICETRAILEHIEETETEPPLLGRDPAERAEARRLLQWFDRKFDNEVNGFLLHKKMEKRLLRMGAPDLAALRQGREALRMHLGYIESLLQTRDWLAGRRMSLADFAAAAHLSVIDYFGDVPWKDFQAAKTWYMKLKSRPCFRPILADRWPGLAPAAHYDDLDF | – | 1.18 | 1.24 | 98.9 |
